From PMC7895437

How the values were obtained:
[1] = target: golgin A3 (UniProt Q08378); experiment: anti-FLAG co-IP, golgin A3 Western blot; conditions: reference: Cα L206R, vehicle; sites S114
[2] = target: PKA regulatory subunit IIβ, FLAG-tagged (RIIβ-FLAG) (human) (UniProt P31323); experiment: co-IP
UniProt P31323, sequence (P31323 whole entry): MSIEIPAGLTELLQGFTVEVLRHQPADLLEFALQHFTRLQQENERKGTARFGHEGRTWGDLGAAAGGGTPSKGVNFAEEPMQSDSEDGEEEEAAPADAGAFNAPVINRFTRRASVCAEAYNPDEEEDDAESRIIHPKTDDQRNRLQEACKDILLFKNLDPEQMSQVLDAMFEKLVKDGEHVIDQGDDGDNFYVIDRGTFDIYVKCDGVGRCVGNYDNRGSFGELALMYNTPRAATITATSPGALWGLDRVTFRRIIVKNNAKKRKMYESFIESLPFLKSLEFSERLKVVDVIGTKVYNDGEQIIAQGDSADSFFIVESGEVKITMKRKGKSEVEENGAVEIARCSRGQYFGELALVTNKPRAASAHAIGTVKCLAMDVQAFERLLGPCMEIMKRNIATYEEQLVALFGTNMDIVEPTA

| Substance | other: densitometry, relative units [1] | densitometry of golgin A3 co-precipitated with RIIβ-FLAG (WB) [2] |
| --- | --- | --- |
| RIIβ (PKA regulatory subunit IIβ) (from UniProt P31323) Cα L206R, 8-Br-cAMP | lost; reference 1.8 ± 0.2 |  |
| golgin A3 (from UniProt Q08378 1-1498) (natural protein) |  | 1.8 |
